In paper PMC4498601, “Two high-mobility group box domains act together to underwind and kink DNA”:

Molecular target: T1, HMGB1 box A (Rattus norvegicus (rat), UniProt P63159 8-81)
T1 sequence: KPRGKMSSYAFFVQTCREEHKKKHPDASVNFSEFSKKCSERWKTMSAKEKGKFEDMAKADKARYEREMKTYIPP
Test: X-ray crystallography; 2.0 A; 40 mM MgCl2, 50 mM sodium cacodylate pH 6.0, MPD; two box A per kinked duplex, one further duplex almost unbound; EMSA: 0.33x TBE (30 mM Tris-borate, 0.66 mM EDTA), 3% glycerol, 30 min incubation (temperature not stated), 6% native PAGE at 4 C; crystal complex: 1.6 mM protein, 0.8 mM DNA, about 1 h at 4 C
Conditions: protein: recombinant; tags: GST tag removed by thrombin; chain copies: 2; blunt; self-complementary decamer, 2 copies of the strand

B1: d(ATATCGATAT)2 (dsDNA)
DNA 1: ATATCGATAT
DNA 2: ATATCGATAT
  binding result: binds
